Test results: US20210246166A1 (Bayer, published 2021)
Numbered stars: 1 amine (or outer) side, 2 acyl side, 3 side chain; on linkers, the order of the positions; unused ones are H or OH. Bridge positions count the residues as written; N and C are the ends. Square brackets hold non-standard residues; d marks the D form. Ends that are not written are not given here. Phe(2,3-F2) = (2S)-3-(2,3-difluorophenyl)-2-aminopropanoic acid, O=C([C@H](Cc1cccc(F)c1F)N[*:1])[*:2]; X8 = (R)‑4‑Amino‑6‑methylheptanoic acid, CC(C)C[C@@H](CCC(=O)[*:2])N[*:1]; X6 = (S)‑(1-Piperidin-3-yl)‑acetic acid, O=C(C[C@@H]1CCCN([*:1])C1)[*:2]; Pro(4-spirocPr) = O=C(O)[C@@H]1CC2(CC2)CN1; Oic = O=C(O)[C@@H]1C[C@@H]2CCCC[C@@H]2N1; tBuAla = CC(C)(C)C[C@H](N)C(=O)O; (3-Me)H = L-3-methylhistidine; Pen = CC(C)(S)[C@H](N)C(=O)O; NMeA = CN[C@@H](C)C(=O)O; Nva = CCC[C@H](N)C(=O)O; Sar = CNCC(=O)O

T1: recombinant rat MASP1 active protease (amino acids 302-704, C-terminal His Tag) (rat, UniProt Q8CHN8 302-704)
T1 sequence: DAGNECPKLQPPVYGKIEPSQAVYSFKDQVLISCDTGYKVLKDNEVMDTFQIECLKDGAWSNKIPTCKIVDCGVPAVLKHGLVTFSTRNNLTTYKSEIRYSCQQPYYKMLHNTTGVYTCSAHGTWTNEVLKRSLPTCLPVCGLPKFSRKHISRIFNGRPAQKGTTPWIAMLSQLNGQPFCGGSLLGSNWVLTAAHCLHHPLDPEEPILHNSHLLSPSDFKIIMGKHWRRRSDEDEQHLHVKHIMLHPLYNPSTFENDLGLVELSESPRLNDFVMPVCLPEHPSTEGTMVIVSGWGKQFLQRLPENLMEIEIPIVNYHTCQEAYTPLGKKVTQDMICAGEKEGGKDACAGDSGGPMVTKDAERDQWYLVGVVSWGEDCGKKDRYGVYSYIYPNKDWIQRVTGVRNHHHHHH

B1: Example 370: fIC+SRSLP-(Oic)-I-(Pen)+IP-NH2 (peptide)
peptide: [dF]ICSRSLP[Oic]I[Pen]IP-NH2
modifications: disulfide 3-11; N-terminus assumed
SMILES: CC[C@H](C)[C@H](NC(=O)[C@H](N)Cc1ccccc1)C(=O)N[C@H]1CSSC(C)(C)[C@@H](C(=O)N[C@H](C(=O)N2CCC[C@H]2C(N)=O)[C@@H](C)CC)NC(=O)[C@H]([C@@H](C)CC)NC(=O)[C@@H]2C[C@@H]3CCCC[C@@H]3N2C(=O)[C@@H]2CCCN2C(=O)[C@H](CC(C)C)NC(=O)[C@H](CO)NC(=O)[C@H](CCCNC(=N)N)NC(=O)[C@H](CO)NC1=O
B2: Example 450: ((N-Me)G)-IC+SRSLP-(Oic)-I-(Pen)+IP-((R)-4-Amino-6-methylheptanoic acid)-OH (peptide)
peptide: [Sar]ICSRSLP[Oic]I[Pen]IP[X8]-OH
modifications: disulfide 3-11; N-terminus assumed
SMILES: CC[C@H](C)[C@H](NC(=O)CNC)C(=O)N[C@H]1CSSC(C)(C)[C@@H](C(=O)N[C@H](C(=O)N2CCC[C@H]2C(=O)N[C@H](CCC(=O)O)CC(C)C)[C@@H](C)CC)NC(=O)[C@H]([C@@H](C)CC)NC(=O)[C@@H]2C[C@@H]3CCCC[C@@H]3N2C(=O)[C@@H]2CCCN2C(=O)[C@H](CC(C)C)NC(=O)[C@H](CO)NC(=O)[C@H](CCCNC(=N)N)NC(=O)[C@H](CO)NC1=O
B3: Example 439: ((N-Me)G)-IC+SRS-((tBu)A)-P-((6S)-5-Azaspiro[2.4]heptane-6-carboxylic acid)-I-(Pen)+IP-NH2 (peptide)
peptide: [Sar]ICSRS[tBuAla]P[Pro(4-spirocPr)]I[Pen]IP-NH2
modifications: disulfide 3-11; N-terminus assumed
SMILES: CC[C@H](C)[C@H](NC(=O)CNC)C(=O)N[C@H]1CSSC(C)(C)[C@@H](C(=O)N[C@H](C(=O)N2CCC[C@H]2C(N)=O)[C@@H](C)CC)NC(=O)[C@H]([C@@H](C)CC)NC(=O)[C@@H]2CC3(CC3)CN2C(=O)[C@@H]2CCCN2C(=O)[C@H](CC(C)(C)C)NC(=O)[C@H](CO)NC(=O)[C@H](CCCNC(=N)N)NC(=O)[C@H](CO)NC1=O
B4: Example 440: ((N-Me)G)-IC+SRS-((2S)-3-(2,3-difluorophenyl)-2-aminopropanoic acid)-PPI-(Pen)+IP-NH2 (peptide)
peptide: [Sar]ICSRS[Phe(2,3-F2)]PPI[Pen]IP-NH2
modifications: disulfide 3-11; N-terminus assumed
SMILES: CC[C@H](C)[C@H](NC(=O)CNC)C(=O)N[C@H]1CSSC(C)(C)[C@@H](C(=O)N[C@H](C(=O)N2CCC[C@H]2C(N)=O)[C@@H](C)CC)NC(=O)[C@H]([C@@H](C)CC)NC(=O)[C@@H]2CCCN2C(=O)[C@@H]2CCCN2C(=O)[C@H](Cc2cccc(F)c2F)NC(=O)[C@H](CO)NC(=O)[C@H](CCCNC(=N)N)NC(=O)[C@H](CO)NC1=O
B5: Example 451: ((N-Me)G)-IC+SRSLP-(Oic)-I-(Pen)+IP-((S)-(1-Piperidin-3-yl)-acetic acid)-OH (peptide)
peptide: [Sar]ICSRSLP[Oic]I[Pen]IP[X6]-OH
modifications: disulfide 3-11; N-terminus assumed
SMILES: CC[C@H](C)[C@H](NC(=O)CNC)C(=O)N[C@H]1CSSC(C)(C)[C@@H](C(=O)N[C@H](C(=O)N2CCC[C@H]2C(=O)N2CCC[C@@H](CC(=O)O)C2)[C@@H](C)CC)NC(=O)[C@H]([C@@H](C)CC)NC(=O)[C@@H]2C[C@@H]3CCCC[C@@H]3N2C(=O)[C@@H]2CCCN2C(=O)[C@H](CC(C)C)NC(=O)[C@H](CO)NC(=O)[C@H](CCCNC(=N)N)NC(=O)[C@H](CO)NC1=O
B6: Example 448: ((N-Me)G)-IC+RRS-((tBu)A)-PP-(Nva)-(Pen)+IP-NH2 (peptide)
peptide: [Sar]ICRRS[tBuAla]PP[Nva][Pen]IP-NH2
modifications: disulfide 3-11; N-terminus assumed
SMILES: CCC[C@@H]1NC(=O)[C@@H]2CCCN2C(=O)[C@@H]2CCCN2C(=O)[C@H](CC(C)(C)C)NC(=O)[C@H](CO)NC(=O)[C@H](CCCNC(=N)N)NC(=O)[C@H](CCCNC(=N)N)NC(=O)[C@@H](NC(=O)[C@@H](NC(=O)CNC)[C@@H](C)CC)CSSC(C)(C)[C@@H](C(=O)N[C@H](C(=O)N2CCC[C@H]2C(N)=O)[C@@H](C)CC)NC1=O

target: T1, recombinant rat MASP1 active protease …; test: cell-based or functional assay

Binder	rat MASP1 IC50 [nM]
B1	235
B2	31
[Sar]ICSRSLP[Oic]I[Pen]IPP[(2S)‑3‑(Triazol-1-yl)‑2‑(amino)propanoic acid]-NH2 (disulfide 3-11)	39
[NMeA]ICSRS[tBuAla]P[(3R,6R)‑1,1‑Difluoro‑5‑azaspiro(2.4)heptane‑6‑carboxylic acid (enantiomer 1)]I[Pen]IP-NH2 (disulfide 3-11)	29
[(3-Me)H]ICSRSLP[Oic]I[Pen]IP-NH2 (disulfide 3-11) [Example 444: ((3-Me)H)-IC+SRSLP-(Oic)-I-(Pen)+IP-NH2]	130
B3	36
B4	610
B5	46
B6	5000

target: recombinant rat MASP2 active protease (amino acids 296-685, C-terminal His Tag) (rat, UniProt Q9JJS8 296-685); test: cell-based or functional assay
Sequence (Q9JJS8 other isoform, or with tags, fused parts or gaps limits assumed): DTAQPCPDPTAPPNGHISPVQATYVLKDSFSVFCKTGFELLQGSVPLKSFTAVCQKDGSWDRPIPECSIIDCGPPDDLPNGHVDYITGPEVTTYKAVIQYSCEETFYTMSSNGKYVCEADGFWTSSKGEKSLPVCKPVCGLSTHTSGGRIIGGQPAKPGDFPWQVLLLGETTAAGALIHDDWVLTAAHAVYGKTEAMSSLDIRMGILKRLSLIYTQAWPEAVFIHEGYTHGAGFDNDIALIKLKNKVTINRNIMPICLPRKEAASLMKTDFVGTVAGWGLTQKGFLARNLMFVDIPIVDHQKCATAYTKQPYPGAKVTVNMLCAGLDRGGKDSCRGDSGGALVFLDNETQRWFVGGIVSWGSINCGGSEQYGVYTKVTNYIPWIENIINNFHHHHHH

Binder	rat MASP2 IC50 [nM]
B1	170
B2	52
[Sar]ICSRSLP[Oic]I[Pen]IPP[(2S)‑3‑(Triazol-1-yl)‑2‑(amino)propanoic acid]-NH2 (disulfide 3-11)	31
[NMeA]ICSRS[tBuAla]P[(3R,6R)‑1,1‑Difluoro‑5‑azaspiro(2.4)heptane‑6‑carboxylic acid (enantiomer 1)]I[Pen]IP-NH2 (disulfide 3-11)	4.7
[(3-Me)H]ICSRSLP[Oic]I[Pen]IP-NH2 (disulfide 3-11) [Example 444: ((3-Me)H)-IC+SRSLP-(Oic)-I-(Pen)+IP-NH2]	9.8
B3	9.4
B4	14
B5	46
B6	5000
